Source: PMC10319729

Target: LGR4 co-expressed with ZNRF3ΔRING on HEK293T cells (LGR4-E3 ligase complex), Q9BXB1

B1: RSPO2 furin domain with a C-terminal His tag (R2Fu-His), Q6UXX9 37-143 (domain or fragment)
chain: NPICKGCLSCSKDNGCSRCQQKLFFFLRREGMRQYGECLHSCPSGYYGHRAPDMNRCARCRIENCDSCFSKDFCTKCKVGFYLHRGRCFDECPDGFAPLEETMECVE
EC50 of TOPFlash (Wnt/β-catenin reporter) activity in STF cells, which endogenously express LGR4, RNF43 and ZNRF3: 0.79 nM
